Changes are numbered by the printed parent chain.
Columns and labels:
human C4b (human) [1] = biological target: T1, human C4b (human) (UniProt P0C0L4)
T1 sequence: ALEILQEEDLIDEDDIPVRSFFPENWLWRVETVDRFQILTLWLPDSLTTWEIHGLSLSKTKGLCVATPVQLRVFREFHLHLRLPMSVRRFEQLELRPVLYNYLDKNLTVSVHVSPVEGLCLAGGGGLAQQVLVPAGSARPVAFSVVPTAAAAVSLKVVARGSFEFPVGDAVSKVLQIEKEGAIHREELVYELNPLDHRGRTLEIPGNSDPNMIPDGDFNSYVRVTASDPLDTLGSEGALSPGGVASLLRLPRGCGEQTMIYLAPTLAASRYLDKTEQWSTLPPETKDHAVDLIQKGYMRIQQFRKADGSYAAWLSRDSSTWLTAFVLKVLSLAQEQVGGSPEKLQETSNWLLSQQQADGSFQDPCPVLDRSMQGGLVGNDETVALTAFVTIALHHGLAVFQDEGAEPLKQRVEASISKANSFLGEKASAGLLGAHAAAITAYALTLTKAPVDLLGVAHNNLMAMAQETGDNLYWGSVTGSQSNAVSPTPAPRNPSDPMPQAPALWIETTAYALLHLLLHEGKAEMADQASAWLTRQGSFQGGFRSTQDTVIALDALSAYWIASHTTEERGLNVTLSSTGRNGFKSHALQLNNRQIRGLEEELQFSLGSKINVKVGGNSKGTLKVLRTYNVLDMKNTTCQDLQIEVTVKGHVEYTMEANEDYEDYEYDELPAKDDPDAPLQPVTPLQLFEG

[2] = biological target: soluble human C3b (human) (UniProt P01024)
human C4b (human) [3] = biological target: T1, human C4b (human); remark: listed apart in the source
human C4b (human) [4] = biological target: T2, human C4b (human) (UniProt P0C0L5)
T2 sequence: T1 sequence with A151T, D317G, P364L, C365S, L368I, D369H, N420S, V451A, L454R, S530A

C4b Screen Ref Fold (fold of CFI-HSA wild type) (human C4b (human) [1]) | iC3b Screen Ref Fold (fold of CFI-HSA wild type) [2] | C4c EC50 (nM) (human C4b (human) [3]) | C4b Screen Ref Fold (fold of CFI-HSA wild type) (human C4b (human) [4]) | C4c EC50 (human C4b (human) [3]) | C4b Screen Ref Fold (fold vs CFI-HSA wild type) (human C4b (human) [4]) | iC3b Screen Ref Fold (fold vs CFI-HSA wild type) [2] | Substance
4.58 | 1.9 | 14.4 nM |  |  |  |  | CFI-HSA variant Y408F; E457G; E461Q; R462K; N531G (enzyme)
 | 1.27 |  | 5.48 | 54 nM |  |  | CFI-HSA variant E457G; N531G; P535G (enzyme)
 |  | 897 nM |  |  | 0.22 | 0.55 | CFI-HSA variant R321A (enzyme)
 |  | 163 nM |  |  | 5.78 | 0.86 | CFI-HSA variant Y408L; E457G; E461Q; R462K; F464Y (enzyme)
 | 2.1 |  | 1.96 | 375 nM |  |  | CFI-HSA variant S552G; P558S (enzyme)
 | 0.95 |  | 3.66 | 48.4 nM |  |  | CFI-HSA variant Y408L; E457G; N531G; N422K (enzyme)
 | 3.02 | 181 nM | 2.03 |  |  |  | CFI-HSA variant Y408L; E457G; D425R; E416A (enzyme)
 |  | 51.5 nM |  |  | 6.68 | 1.21 | CFI-HSA variant Y408L; N531G; E461Q (enzyme)
 | 0.01 |  | 0.24 | > 1000 nM |  |  | CFI-HSA variant F464G (enzyme)
 | 1.05 |  | 5.11 | 77.5 nM |  |  | CFI-HSA variant Y408L; N531G; P558S (enzyme)
 | 1.87 |  | 3.1 | 43.6 nM |  |  | CFI-HSA variant Y408L; E457G; N422K (enzyme)
 | 2.15 | 60.6 nM | 1.41 |  |  |  | CFI-HSA variant Y408L; N531G; D425R; E416A (enzyme)
 |  | 90.2 nM |  |  | 3.98 | 0.89 | CFI-HSA variant Y408L; E457G; E461Q; R462K (enzyme)
 | 0.26 |  | 2.53 | 74.5 nM |  |  | CFI-HSA variant S552G; Y553H (enzyme)
 | 1.03 |  | 5.13 | 64.3 nM |  |  | CFI-HSA variant Y408L; N531G; K534Q (enzyme)
 | 1.35 |  | 5.28 | 63.2 nM |  |  | CFI-HSA variant N531G; P558S (enzyme)
 | 0.95 |  | 3.82 | 136 nM |  |  | CFI-HSA variant N531G; P535G; P558S (enzyme)
 | 1.28 |  | 4.19 | 126 nM |  |  | CFI-HSA variant N531G; P535G (enzyme)
 | 1.2 |  | 4.68 | 21.1 nM |  |  | CFI-HSA variant Y408L; E457G; N531G; P535G; K534Q (enzyme)
 | 0.27 |  | 3.1 | 83.6 nM |  |  | CFI-HSA variant S552G; Y553H; F559L; V565I (enzyme)
 | 0.93 |  | 4.47 | 118 nM |  |  | CFI-HSA variant N531G; P535G; K534Q (enzyme)
 |  | 84.8 nM |  |  | 4.63 | 0.39 | CFI-HSA variant Y408L; N531G; E457G; E461Q (enzyme)

C4b Screen Ref Fold (fold of CFI-HSA wild type) (human C4b (human) [1]) | iC3b Screen Ref Fold (fold of CFI-HSA wild type) [2] | C4c EC50 (nM) (human C4b (human) [3]) | C4b Screen Ref Fold (fold of CFI-HSA wild type) (human C4b (human) [4]) | C4c EC50 (human C4b (human) [3]) | C4b Screen Ref Fold (fold vs CFI-HSA wild type) (human C4b (human) [4]) | iC3b Screen Ref Fold (fold vs CFI-HSA wild type) [2] | Substance
 |  | 82.1 nM |  |  | 5.37 | 0.46 | CFI-HSA variant Y408L; N531G; E457G; E461Q; R462K; F464Y (enzyme)
 | 2.15 | 34.8 nM | 4.66 |  |  |  | CFI-HSA variant Y408L; E457G; N531G; E416A (enzyme)
 | 1.21 |  | 5.47 | 102 nM |  |  | CFI-HSA variant Y408L; E457G; D425K (enzyme)
 |  | 338 nM |  |  | -0.01 | 0.02 | CFI-HSA variant Y408P (enzyme)
 | 1.04 |  | 4.98 | 65.9 nM |  |  | CFI-HSA variant E457G; P558S (enzyme)
 | 1.43 |  | 4.99 | 50.1 nM |  |  | CFI-HSA variant Y408L; N531G; D425K (enzyme)
 | 0.81 |  | 3.18 | 186 nM |  |  | CFI-HSA variant E457G; P535G; P558S (enzyme)
 |  | 60 nM |  |  | 6.07 | 0.64 | CFI-HSA variant Y408L; N531G; E457G; E461Q; R462K (enzyme)
 | 1.35 |  | 1.11 | 119 nM |  |  | CFI-HSA variant E487K (enzyme)
 | 1.39 |  | 5.23 | 43.5 nM |  |  | CFI-HSA variant N531G; K534Q (enzyme)
 | 1.87 |  | 4.46 | 51.6 nM |  |  | CFI-HSA variant E457G; N531G; P535G; N422K (enzyme)
 | 1.35 |  | 4.53 | 78.9 nM |  |  | CFI-HSA variant N531G; P535G; D425K (enzyme)
 | 1.38 |  | 2.94 | 65.4 nM |  |  | CFI-HSA variant Y408L; N531G; P535G; D425K (enzyme)
 | 1.06 |  | 5.28 | 50.5 nM |  |  | CFI-HSA variant Y408L; E457G; N531G; P535G (enzyme)
 |  | 118 nM |  |  | 5.22 | 1.02 | CFI-HSA variant Y408L; N531G; P535A (enzyme)
 | 1.15 |  | 5.24 | 55.2 nM |  |  | CFI-HSA variant E457G; K534Q (enzyme)
 | 0.82 |  | 3.85 | 154 nM |  |  | CFI-HSA variant E457G; P535G; K534Q (enzyme)
 |  | 45.8 nM |  |  | 6.16 | 0.84 | CFI-HSA variant Y408L; N531G; E457G; R462K; F464Y (enzyme)
 | 2.51 | 170 nM | 2.11 |  |  |  | CFI-HSA variant Y408L; E457G; E416A (enzyme)
 | 0.54 |  | 5.16 | 26.4 nM |  |  | CFI-HSA variant Y408L; E457G; N531G; K534Q (enzyme)
 | 3.03 | 81.4 nM | 2.64 |  |  |  | CFI-HSA variant N531G; D425R; E416A (enzyme)
 |  | 60.3 nM |  |  | 2.96 | 0.08 | WT; GGSSGG (SEQ ID NO: 6); CR1(ccp15-17); GGSSGG (SEQ ID NO: 6); fH(ccp1-4) (enzyme)

— patent US20230038638A1, “COMPLEMENT FACTOR I-RELATED COMPOSITIONS AND METHODS” (published 2023)
